Results on 2 molecules are retold here after publication PMC5923229, “The cysteine-reactive small molecule ebselen facilitates effective SOD1 maturation” (Nature Communications, 2018).

The labels stand for the following.
B1: artificial disulphide knockout SOD1 mutant C57A/C146A (enzyme)
chain: not shown
notes: superoxide dismutase-1 (SOD1), C57A/C146A; also called ebselen-free SOD1; source: E. coli BL21 (DE3), purified (diethylaminoethyl cellulose); treated with DMSO
B2: copper chaperone for SOD1 (hCCS), wild-type (natural protein, UniProt O14618 1-274, looked up)
chain: MASDSGNQGTLCTLEFAVQMTCQSCVDAVRKSLQGVAGVQDVEVHLEDQMVLVHTTLPSQEVQALLEGTGRQAVLKGMGSGQLQNLGAAVAILGGPGTVQGVVRFLQLTPERCLIEGTIDGLEPGLHGLHVHQYGDLTNNCNSCGNHFNPDGASHGGPQDSDRHRGDLGNVRADADGRAIFRMEDEQLKVWDVIGRSLIIDEGEDDLGRGGHPLSKITGNSGERLACGIIARSAGLFQNPKQICSCDGLTIWEERGRPIAGKGRKESAQPPAHL
notes: copper chaperone for SOD1 (hCCS), wild type; Desalted into ligand-free, nitrogen-purged buffer

Data set [1] deals with B2. The data set can be described thus: SEC; C57A/C146A SOD1 with or without ebselen (25 uM SOD1, 100 uM ebselen, 3 h, 20 C) and hCCS; complex formed with 250 pmol of both SOD1 and hCCS. As to conditions: both partners purified.
Data set [2] deals with the molecule itself. The description is as above.

For orientation: stoichiometry N means the number of molecules, sites or subunits per partner or assembly.

Turning to B1, the binding result in data set [1] was “binds”.

For the molecule B2, in data set [2], the “stoichiometry N” value worked out at 2.
